According to patent US20130101592A1 (LYKERA BIOMED, published 2013):

Columns and labels:
[1] = target: recombinant human S100A2 (Abnova) (human, UniProt P29034 1-98); experiment: ELISA on purified protein; legend: - no reaction
[2] = target: recombinant human S100A6 (Abnova) (human, UniProt P06703 1-90); experiment: ELISA on purified protein; legend: - no reaction
[3] = target: T1, recombinant human S100A7 (human, UniProt P31151 1-101); experiment: ELISA on purified protein; legend: - no reaction
T1 sequence (looked up): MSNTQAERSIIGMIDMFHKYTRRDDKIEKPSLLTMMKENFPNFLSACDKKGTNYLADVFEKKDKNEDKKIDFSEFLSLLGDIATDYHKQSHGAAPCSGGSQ

[4] = target: T2, recombinant human S100A1 (Abnova) (human, UniProt P23297 1-94); experiment: ELISA on purified protein; legend: - no reaction
T2 sequence (looked up): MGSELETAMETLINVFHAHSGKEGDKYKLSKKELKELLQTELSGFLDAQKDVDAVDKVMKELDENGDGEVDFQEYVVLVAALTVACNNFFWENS

[5] = target: T3, recombinant murine S100A4 (murine, UniProt P07091 1-101); experiment: ELISA on purified protein; legend: ++++ positive reaction
T3 construct: also called Mouse S100A4
T3 sequence (P07091 whole entry, one chain of several): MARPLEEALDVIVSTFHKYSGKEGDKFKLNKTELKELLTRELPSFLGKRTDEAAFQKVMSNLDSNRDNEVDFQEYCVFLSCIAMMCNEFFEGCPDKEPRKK

Sequence of recombinant human S100A2 (Abnova) (P29034 whole entry, one chain of several): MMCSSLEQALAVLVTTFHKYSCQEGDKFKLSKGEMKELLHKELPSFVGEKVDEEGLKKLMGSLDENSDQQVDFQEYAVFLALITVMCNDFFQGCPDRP

binding result [1]: no binding | binding result [2]: no binding | binding result [3]: no binding | binding result [4]: no binding | binding result [5]: binds
B1: monoclonal antibody 5C3 (hybridoma 5C3-1B8-1F4, ECACC 10022401) (antibody, IgG1, V domains shown)
VH: EAQLQQSGAELVKPGASVKLSCTASGFNIQETYMHWVKQRPEQGLEWIGRIDPANGNTKDDPKFQGKASITVDTSSNTAYLQLSSLTSEDTAVYYCASSYAMDYWGQGTSVTVSS
VL: DVLMTQTPLSLPVSLGDQASISCRSSQSIVHSNGNTYLEWYLQKTGQSPELLIYKVSNRLSGVPDRFSGSGSGTDFTLKISRVEAEDLGVYYCFQGSHVPFTFGSGTKLEIK
notes: constant regions are not; also called monoclonal mouse anti-human S100A4 5C3
